In paper PMC10214526 (ACS Central Science, 2023):
Where no end group is shown, it is not given here.

Assays:
[1] = target: T1, GABARAP(ΔG116)–NHNH methyl-fumarate 2 (UniProt O95166 1-115, C-terminal acyl hydrazide: -NHNH methyl fumarate (mimics the native glycine G116)); test: cross-linking; competition: probe 2 (15 μM) incubated with ATG3 C1 in the presence of increasing amounts of LIR^ATG3 peptide; GABARAP–ATG3 C1 complex quantified by gel densitometry, normalized to the reaction without peptide; IC50 by nonlinear regression; settings: both partners purified
T1 construct: GABARAP; GABARAP(ΔG116): the C-terminal glycine G116 is deleted, so the chain ends at residue 115; it may fit a chain without the first methionine (surmised); also called probe 2; GABARAP methyl fumarate; not shown: Mxe GyrA intein, C-terminal, cleaved
T1 sequence (O95166 1-115, stated change not applied): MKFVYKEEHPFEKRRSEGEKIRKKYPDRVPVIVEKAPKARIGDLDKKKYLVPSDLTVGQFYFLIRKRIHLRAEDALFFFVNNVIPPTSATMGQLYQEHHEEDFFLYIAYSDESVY

[2] = target: T2, GABARAP (UniProt O95166 2-116); test: fluorescence polarisation; fluorescein-modified LIR^ATG3 peptide (linear, cyclized or truncated 103–111) with GABARAP or LC3A; triplicates; KD by nonlinear regression; settings: both partners purified
T2 construct: GABARAP as used in fluorescence polarization and in the cocrystal
T2 sequence (O95166 2-116): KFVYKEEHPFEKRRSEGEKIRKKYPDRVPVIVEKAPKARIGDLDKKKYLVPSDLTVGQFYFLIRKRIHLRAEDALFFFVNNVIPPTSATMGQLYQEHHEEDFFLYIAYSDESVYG

IC50 [1] | binding result [2] | Binder
24 µM | – | LEAIIEEDDGDGGWVDTYHC (thioether (positions not given here); not fully specified (bridges); also: cyclized by selective cysteine alkylation, partner of Cys not given here) [Cyclic peptide 6]
104 µM | – | LEAIIEEDDGDGGWVDTYH (peptide, UniProt Q9NT62 94-112, looked up, ATG3, human, LIR motif stretch L94-H112; also called linear LIR^ATG3 peptide 5; source: synthetic peptide (chemically prepared)) [LIR (L94-H112) peptide 5]
– | binds | GDGGWVDTY (peptide, UniProt Q9NT62 103-111, looked up, also: fluorescein, position not given here, ATG3, human, amino acids G103-Y111 including the core LIR motif; also called truncated peptide) [fluorescein-modified truncated (103–111) LIR^ATG3 peptide]
